From US20020081570A1, “System to detect protein-protein interactions” (priority 2000, published 2002)

Biological target: T1, syntaxin 1A (Homo sapiens, UniProt Q16623)
T1 construct: expressed in transfected cells; host or cells: yeast (two-hybrid; cotransformations and yeast matings)
Experiment: yeast two-hybrid screen (cotransformations and yeast matings)
Assay type: binding
Conditions: yeast two hybrid system
Source text: The present inventors completed a yeast two-hybrid screen using Syt 1, syntaxin 1A and synaptobrevin 2 (Vamp 2). Recombinant and native Syt-1 and syntaxin 1A were shown previously to interact in a calcium dependent manner. […] Screens performed using two different approaches—cotransformations and yeast matings—gave identical findings.

T1 sequence (Q16623 whole entry, species assumed): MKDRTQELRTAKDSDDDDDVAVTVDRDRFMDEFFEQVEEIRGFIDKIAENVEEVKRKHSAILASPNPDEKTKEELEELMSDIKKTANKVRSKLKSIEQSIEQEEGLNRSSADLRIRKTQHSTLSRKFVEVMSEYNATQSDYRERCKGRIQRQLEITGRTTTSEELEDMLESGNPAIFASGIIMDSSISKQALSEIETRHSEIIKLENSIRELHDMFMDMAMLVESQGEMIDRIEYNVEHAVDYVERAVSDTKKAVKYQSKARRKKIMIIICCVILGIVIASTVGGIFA

direct interaction with syntaxin 1A | Substance
did not | Syt-1: synaptotagmin I protein used in yeast two-hybrid screen
interact directly | synaptobrevin: synaptobrevin 2 (Vamp 2) protein used in yeast two-hybrid screen
